Source: publication PMC9482650, “Quantitative fragmentomics allow affinity mapping of interactomes” (Nature Communications, 2022)

T1: APBA1_1, Q02410
T1 sequence (Q02410 651-752, limits assumed, looked up): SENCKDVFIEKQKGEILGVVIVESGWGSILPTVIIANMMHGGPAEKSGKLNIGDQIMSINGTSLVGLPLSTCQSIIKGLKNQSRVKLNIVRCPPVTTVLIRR

T2: GRIP1_2, Q9Y3R0
T2 sequence (Q9Y3R0 145-248, limits assumed, looked up): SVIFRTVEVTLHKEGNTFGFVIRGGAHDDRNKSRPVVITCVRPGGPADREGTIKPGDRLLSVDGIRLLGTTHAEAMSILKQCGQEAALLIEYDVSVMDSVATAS

T3: LNX2_3, Q8N448
T3 sequence (Q8N448 463-564, limits assumed, looked up): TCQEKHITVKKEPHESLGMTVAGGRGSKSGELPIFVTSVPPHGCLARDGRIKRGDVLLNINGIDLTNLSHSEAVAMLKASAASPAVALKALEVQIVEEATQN

T4: MPDZ_12, O75970
T4 sequence (O75970 1857-1958, limits assumed, looked up): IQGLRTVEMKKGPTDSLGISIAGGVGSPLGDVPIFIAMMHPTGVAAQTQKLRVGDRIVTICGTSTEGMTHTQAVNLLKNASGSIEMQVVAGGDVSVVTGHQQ

T5: MPDZ_5, O75970
T5 sequence (O75970 695-796, limits assumed, looked up): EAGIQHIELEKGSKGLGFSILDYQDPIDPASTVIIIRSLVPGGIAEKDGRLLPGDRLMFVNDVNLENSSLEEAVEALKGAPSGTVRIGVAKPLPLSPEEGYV

T6: PDZD2_2, O15018
T6 sequence (O15018 329-429, limits assumed, looked up): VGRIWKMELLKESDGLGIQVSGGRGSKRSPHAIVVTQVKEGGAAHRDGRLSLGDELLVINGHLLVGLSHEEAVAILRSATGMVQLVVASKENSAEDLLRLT

T7: PTPN13_1, Q12923
T7 sequence (Q12923 1088-1188, limits assumed, looked up): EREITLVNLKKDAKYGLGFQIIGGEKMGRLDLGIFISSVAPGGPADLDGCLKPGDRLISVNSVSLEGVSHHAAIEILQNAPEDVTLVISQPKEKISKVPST

T8: RAPGEF6, Q8TEU7
T8 sequence (Q8TEU7 525-625, limits assumed, looked up): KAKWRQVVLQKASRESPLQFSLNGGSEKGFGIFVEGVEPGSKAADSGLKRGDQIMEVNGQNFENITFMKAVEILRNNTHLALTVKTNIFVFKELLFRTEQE

T9: RHPN1, Q8TCX5
T9 sequence (Q8TCX5 508-602, limits assumed, looked up): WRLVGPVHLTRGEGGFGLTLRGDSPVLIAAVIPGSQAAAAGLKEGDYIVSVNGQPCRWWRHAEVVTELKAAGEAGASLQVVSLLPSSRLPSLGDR

T10: TIAM2, Q8IVF5
T10 sequence (Q8IVF5 885-986, limits assumed, looked up): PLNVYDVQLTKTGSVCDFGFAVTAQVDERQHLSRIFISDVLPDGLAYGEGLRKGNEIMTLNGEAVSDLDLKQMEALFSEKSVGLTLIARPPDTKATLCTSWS


Molecular target: T1, APBA1_1, Q02410
Experiment: holdup assay
Set-up: key: below the threshold = too weak to quantify, mostly under pKd 3.1 to 4
Conditions: plain residues with an end cap or a label only (N-terminal biotin on a linker: ado-ado)

pKd	Binder
below the threshold	SAGADSETHC [SLCO1B1, Q9Y6L6]

Molecular target: DLG1_1, Q12959
Experiment: holdup assay
Set-up: key: below the threshold = too weak to quantify, mostly under pKd 3.1 to 4
Conditions: plain residues with an end cap or a label only (N-terminal biotin on a linker: ado-ado)

pKd	Binder
below the threshold	SAGADSETHC [SLCO1B1, Q9Y6L6]

Molecular target: DLG2_3, Q15700
Experiment: holdup assay
Set-up: key: below the threshold = too weak to quantify, mostly under pKd 3.1 to 4
Conditions: plain residues with an end cap or a label only (N-terminal biotin on a linker: ado-ado)

pKd	Binder
below the threshold	SAGADSETHC [SLCO1B1, Q9Y6L6]

Molecular target: DLG4_1, P78352
Experiment: holdup assay
Set-up: key: below the threshold = too weak to quantify, mostly under pKd 3.1 to 4
Conditions: plain residues with an end cap or a label only (N-terminal biotin on a linker: ado-ado)

Sequence of DLG4_1, P78352 (P78352 62-152): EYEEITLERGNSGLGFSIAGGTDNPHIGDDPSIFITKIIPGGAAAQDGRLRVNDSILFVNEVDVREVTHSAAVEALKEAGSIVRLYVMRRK

pKd	Binder
below the threshold	SAGADSETHC [SLCO1B1, Q9Y6L6]

Molecular target: DLG4_3, P78352
Experiment: holdup assay
Set-up: key: below the threshold = too weak to quantify, mostly under pKd 3.1 to 4
Conditions: plain residues with an end cap or a label only (N-terminal biotin on a linker: ado-ado)

Sequence of DLG4_3, P78352 (P78352 306-403): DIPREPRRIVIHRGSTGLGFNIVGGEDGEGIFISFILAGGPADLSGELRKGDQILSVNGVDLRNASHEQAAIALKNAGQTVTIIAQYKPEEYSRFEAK

pKd	Binder
below the threshold	SAGADSETHC [SLCO1B1, Q9Y6L6]

Molecular target: FRMPD2_1, Q68DX3
Experiment: holdup assay
Set-up: key: below the threshold = too weak to quantify, mostly under pKd 3.1 to 4
Conditions: plain residues with an end cap or a label only (N-terminal biotin on a linker: ado-ado)

Sequence of FRMPD2_1, Q68DX3 (Q68DX3 770-861): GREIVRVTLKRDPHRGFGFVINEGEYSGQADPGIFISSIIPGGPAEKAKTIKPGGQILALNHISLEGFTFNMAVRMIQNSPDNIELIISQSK

pKd	Binder
below the threshold	SAGADSETHC [SLCO1B1, Q9Y6L6]

Molecular target: FRMPD3, Q5JV73
Experiment: holdup assay
Set-up: key: below the threshold = too weak to quantify, mostly under pKd 3.1 to 4
Conditions: plain residues with an end cap or a label only (N-terminal biotin on a linker: ado-ado)

Sequence of FRMPD3, Q5JV73 (Q5JV73 12-100): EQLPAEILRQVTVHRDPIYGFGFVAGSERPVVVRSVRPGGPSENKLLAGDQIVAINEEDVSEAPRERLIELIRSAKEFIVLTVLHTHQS

pKd	Binder
below the threshold	SAGADSETHC [SLCO1B1, Q9Y6L6]

Molecular target: T2, GRIP1_2, Q9Y3R0
Experiment: holdup assay
Set-up: key: below the threshold = too weak to quantify, mostly under pKd 3.1 to 4
Conditions: plain residues with an end cap or a label only (N-terminal biotin on a linker: ado-ado)

pKd	Binder
below the threshold	SAGADSETHC [SLCO1B1, Q9Y6L6]

Molecular target: GRIP2_3, Q9C0E4
Experiment: holdup assay
Set-up: key: below the threshold = too weak to quantify, mostly under pKd 3.1 to 4
Conditions: plain residues with an end cap or a label only (N-terminal biotin on a linker: ado-ado)

Sequence of GRIP2_3, Q9C0E4 (Q9C0E4 238-339): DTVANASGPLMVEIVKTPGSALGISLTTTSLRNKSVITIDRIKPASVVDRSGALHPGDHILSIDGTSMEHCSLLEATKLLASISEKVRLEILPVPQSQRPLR

pKd	Binder
below the threshold	SAGADSETHC [SLCO1B1, Q9Y6L6]

Molecular target: GRIP2_7, Q9C0E4
Experiment: holdup assay
Set-up: key: below the threshold = too weak to quantify, mostly under pKd 3.1 to 4
Conditions: plain residues with an end cap or a label only (N-terminal biotin on a linker: ado-ado)

Sequence of GRIP2_7, Q9C0E4 (Q9C0E4 934-1023): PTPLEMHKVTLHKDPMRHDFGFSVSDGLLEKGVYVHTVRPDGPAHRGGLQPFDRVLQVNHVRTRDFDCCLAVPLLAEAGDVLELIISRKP

pKd	Binder
below the threshold	SAGADSETHC [SLCO1B1, Q9Y6L6]

Molecular target: HTRA2, O43464
Experiment: holdup assay
Set-up: key: below the threshold = too weak to quantify, mostly under pKd 3.1 to 4
Conditions: plain residues with an end cap or a label only (N-terminal biotin on a linker: ado-ado)

Sequence of HTRA2, O43464 (O43464 355-458): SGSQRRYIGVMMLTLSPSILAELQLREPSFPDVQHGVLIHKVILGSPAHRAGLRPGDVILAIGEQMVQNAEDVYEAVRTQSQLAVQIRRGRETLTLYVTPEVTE

pKd	Binder
below the threshold	SAGADSETHC [SLCO1B1, Q9Y6L6]

Molecular target: Inadl_1, Q8NI35
Experiment: holdup assay
Set-up: key: below the threshold = too weak to quantify, mostly under pKd 3.1 to 4
Conditions: plain residues with an end cap or a label only (N-terminal biotin on a linker: ado-ado)

Sequence of Inadl_1, Q8NI35 (Q8NI35 113-229): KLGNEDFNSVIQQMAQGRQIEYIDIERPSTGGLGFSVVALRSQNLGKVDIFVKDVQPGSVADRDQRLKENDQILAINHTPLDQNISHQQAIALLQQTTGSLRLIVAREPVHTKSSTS

pKd	Binder
below the threshold	SAGADSETHC [SLCO1B1, Q9Y6L6]

Molecular target: LAP2, Q96RT1
Experiment: holdup assay
Set-up: key: below the threshold = too weak to quantify, mostly under pKd 3.1 to 4
Conditions: plain residues with an end cap or a label only (N-terminal biotin on a linker: ado-ado)

Sequence of LAP2, Q96RT1 (Q96RT1 other isoform, or with tags, fused parts or gaps): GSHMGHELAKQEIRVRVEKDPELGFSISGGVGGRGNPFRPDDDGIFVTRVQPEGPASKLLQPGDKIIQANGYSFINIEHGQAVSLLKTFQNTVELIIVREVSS

pKd	Binder
below the threshold	SAGADSETHC [SLCO1B1, Q9Y6L6]

Molecular target: LNX1_2, Q8TBB1
Experiment: holdup assay
Set-up: key: below the threshold = too weak to quantify, mostly under pKd 3.1 to 4
Conditions: plain residues with an end cap or a label only (N-terminal biotin on a linker: ado-ado)

Sequence of LNX1_2, Q8TBB1 (Q8TBB1 371-470): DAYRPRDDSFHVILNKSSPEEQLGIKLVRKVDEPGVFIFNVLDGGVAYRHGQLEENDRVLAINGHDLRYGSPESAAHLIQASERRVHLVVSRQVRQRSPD

pKd	Binder
below the threshold	SAGADSETHC [SLCO1B1, Q9Y6L6]

Molecular target: T3, LNX2_3, Q8N448
Experiment: holdup assay
Set-up: key: below the threshold = too weak to quantify, mostly under pKd 3.1 to 4
Conditions: plain residues with an end cap or a label only (N-terminal biotin on a linker: ado-ado)

pKd	Binder
below the threshold	SAGADSETHC [SLCO1B1, Q9Y6L6]

Molecular target: MAGI2_2, Q86UL8
Experiment: holdup assay
Set-up: key: below the threshold = too weak to quantify, mostly under pKd 3.1 to 4
Conditions: plain residues with an end cap or a label only (N-terminal biotin on a linker: ado-ado)

Sequence of MAGI2_2, Q86UL8 (Q86UL8 410-522): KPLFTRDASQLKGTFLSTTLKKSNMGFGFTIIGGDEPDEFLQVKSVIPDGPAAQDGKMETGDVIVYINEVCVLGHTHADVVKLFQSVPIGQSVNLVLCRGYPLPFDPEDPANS

pKd	Binder
below the threshold	SAGADSETHC [SLCO1B1, Q9Y6L6]

Molecular target: MAST2, Q6P0Q8
Experiment: holdup assay
Set-up: key: below the threshold = too weak to quantify, mostly under pKd 3.1 to 4
Conditions: plain residues with an end cap or a label only (N-terminal biotin on a linker: ado-ado)

Sequence of MAST2, Q6P0Q8 (Q6P0Q8 1099-1202): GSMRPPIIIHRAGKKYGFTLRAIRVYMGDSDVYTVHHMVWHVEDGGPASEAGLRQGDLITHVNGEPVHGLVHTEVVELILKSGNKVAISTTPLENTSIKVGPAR

pKd	Binder
4.62	SAGADSETHC [SLCO1B1, Q9Y6L6]

Molecular target: T4, MPDZ_12, O75970
Experiment: holdup assay
Set-up: key: below the threshold = too weak to quantify, mostly under pKd 3.1 to 4
Conditions: plain residues with an end cap or a label only (N-terminal biotin on a linker: ado-ado)

pKd	Binder
below the threshold	SAGADSETHC [SLCO1B1, Q9Y6L6]

Molecular target: T5, MPDZ_5, O75970
Experiment: holdup assay
Set-up: key: below the threshold = too weak to quantify, mostly under pKd 3.1 to 4
Conditions: plain residues with an end cap or a label only (N-terminal biotin on a linker: ado-ado)

pKd	Binder
below the threshold	SAGADSETHC [SLCO1B1, Q9Y6L6]

Molecular target: NHERF4_1, Q86UT5-2
Experiment: holdup assay
Set-up: key: below the threshold = too weak to quantify, mostly under pKd 3.1 to 4
Conditions: plain residues with an end cap or a label only (N-terminal biotin on a linker: ado-ado)

Sequence of NHERF4_1, Q86UT5-2 (Q86UT5 other isoform, or with tags, fused parts or gaps): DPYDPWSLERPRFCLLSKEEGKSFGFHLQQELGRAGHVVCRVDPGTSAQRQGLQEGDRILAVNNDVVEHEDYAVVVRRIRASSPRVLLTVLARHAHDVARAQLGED

pKd	Binder
below the threshold	SAGADSETHC [SLCO1B1, Q9Y6L6]

Molecular target: NOS1, P29475
Experiment: holdup assay
Set-up: key: below the threshold = too weak to quantify, mostly under pKd 3.1 to 4
Conditions: plain residues with an end cap or a label only (N-terminal biotin on a linker: ado-ado)

Sequence of NOS1, P29475 (P29475 9-101): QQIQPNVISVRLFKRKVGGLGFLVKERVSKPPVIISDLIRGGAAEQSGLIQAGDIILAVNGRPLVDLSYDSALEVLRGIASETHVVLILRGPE

pKd	Binder
below the threshold	SAGADSETHC [SLCO1B1, Q9Y6L6]

Molecular target: PARD3_3, Q8TEW0
Experiment: holdup assay
Set-up: key: below the threshold = too weak to quantify, mostly under pKd 3.1 to 4
Conditions: plain residues with an end cap or a label only (N-terminal biotin on a linker: ado-ado)

Sequence of PARD3_3, Q8TEW0 (Q8TEW0 582-685): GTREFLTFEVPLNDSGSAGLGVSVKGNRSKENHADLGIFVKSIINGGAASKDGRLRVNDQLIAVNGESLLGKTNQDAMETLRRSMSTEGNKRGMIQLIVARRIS

pKd	Binder
below the threshold	SAGADSETHC [SLCO1B1, Q9Y6L6]

Molecular target: T6, PDZD2_2, O15018
Experiment: holdup assay
Set-up: key: below the threshold = too weak to quantify, mostly under pKd 3.1 to 4
Conditions: plain residues with an end cap or a label only (N-terminal biotin on a linker: ado-ado)

pKd	Binder
3.68	SAGADSETHC [SLCO1B1, Q9Y6L6]

Molecular target: T7, PTPN13_1, Q12923
Experiment: holdup assay
Set-up: key: below the threshold = too weak to quantify, mostly under pKd 3.1 to 4
Conditions: plain residues with an end cap or a label only (N-terminal biotin on a linker: ado-ado)

pKd	Binder
below the threshold	SAGADSETHC [SLCO1B1, Q9Y6L6]

Molecular target: T8, RAPGEF6, Q8TEU7
Experiment: holdup assay
Set-up: key: below the threshold = too weak to quantify, mostly under pKd 3.1 to 4
Conditions: plain residues with an end cap or a label only (N-terminal biotin on a linker: ado-ado)

pKd	Binder
below the threshold	SAGADSETHC [SLCO1B1, Q9Y6L6]

Molecular target: T9, RHPN1, Q8TCX5
Experiment: holdup assay
Set-up: key: below the threshold = too weak to quantify, mostly under pKd 3.1 to 4
Conditions: plain residues with an end cap or a label only (N-terminal biotin on a linker: ado-ado)

pKd	Binder
3.49	SAGADSETHC [SLCO1B1, Q9Y6L6]

Molecular target: SNX27, Q96L92
Experiment: holdup assay
Set-up: key: below the threshold = too weak to quantify, mostly under pKd 3.1 to 4
Conditions: plain residues with an end cap or a label only (N-terminal biotin on a linker: ado-ado)

pKd	Binder
4.65	SAGADSETHC [SLCO1B1, Q9Y6L6]

Molecular target: T10, TIAM2, Q8IVF5
Experiment: holdup assay
Set-up: key: below the threshold = too weak to quantify, mostly under pKd 3.1 to 4
Conditions: plain residues with an end cap or a label only (N-terminal biotin on a linker: ado-ado)

pKd	Binder
below the threshold	SAGADSETHC [SLCO1B1, Q9Y6L6]
